Data as given in PMC6003922, “Functional switching of ascorbate peroxidase 2 of rice (OsAPX2) between peroxidase and molecular chaperone” (Scientific Reports, 2018).

Target: the molecule itself
Test: SEC; Superdex 200 10/300 GL, FPLC, 50 mM Tris-HCl pH 7.5, 100 mM NaCl, 0.5 mL/min, 4 °C; four fractions: F1 HMW complexes (>2,000 kDa), F2 and F3 LMW forms (between 158 and 440 kDa), F4 major dimeric form

B1: recombinant Oryza sativa ascorbate peroxidase 2 (OsAPX2) protein (enzyme, UniProt Q9FE01 1-251, looked up)
chain: MGSKSYPTVSDEYLAAVGKAKRKLRGLIAEKNCAPLMLRLAWHSAGTFDVSSRTGGPFGTMKNPGEQSHAANAGLDIAVRLLDPIKDQLPILSYADFYQLAGVVAVEVTGGPEVPFHPGRQDKPEPPPEGRLPDATQGSDHLRQVFSAQMGLSDKDIVALSGGHTLGRCHKERSGFEGAWTSNPLIFDNSYFTELVSGEKEGLLQLPSDKALMADPAFRPLVEKYAADEDAFFADYAEAHLKLSELGFAEE
notes: Ascorbate peroxidase 2 (OsAPX2), cytosolic, Oryza sativa; the OsAPX2 gene cloned into pET28a; monomer of approximately 27 kDa on reducing SDS-PAGE; Haem-containing peroxidase; also called His-tagged OsAPX2; purified OsAPX2; source: E. coli BL21 (DE3), pET28a, purified (nickel-nitrilotriacetate agarose; SEC)
B1 was tested, and the “stoichiometry N” value was 2.
